According to patent US20210093730A1, “BIOMARKERS FOR ANTIBODY-DRUG CONJUGATE MONOTHERAPY OR COMBINATION THERAPY” (Immunomedics, Inc., priority 2019, published 2021):
Values joined by “and” are separate entries in the source; they are usually repeats but may differ in a detail not shown here. Equal entries are not always repeated. “Also recorded” adds a separate entry of the source. Where two headings read alike, the source gives them in different places.

Experiments:
[1] = tested on: metastatic urothelial cancer; assay: Further study of sacituzumab govitecan in metastatic urothelial cancer (mUC), 32 pts enrolled; type: in vivo, human
Source text: Response-evaluable pts received ≥2 doses, and had ≥1 post-baseline response assessment.

[2] = Immunogenicity: serum antibody responses to sacituzumab govitecan, the IgG and SN-38 by ELISA in mSCLC patients; type: in vivo, human; conditions: up to 63 doses / up to 22 months of treatment
Procedure: Positivity required at least 10% of the tumor cells to be stained, with an intensity scored as 1+ (weak), 2+ (moderate), and 3+ (strong). […] Assay sensitivity is 50 ng/mL for the ADC and the IgG, and 170 ng/mL for anti-SN-38 antibody.

[3] = tested on: diverse metastatic solid cancers
Source text: Patients were refractory/relapsed after standard treatment regimens for metastatic cancer.

[4] = tested on: metastatic triple-negative breast cancer (TNBC); conditions: second line or later; cited from earlier work
[5] = in vivo
[6] = tested on: platinum-resistant urothelial carcinoma; conditions: 6 patients; cited from earlier work
[7] = tested on: metastatic small-cell lung cancer; conditions: cited from earlier work
[8] = tested on: non-small cell lung cancer (NSCLC); conditions: cited from earlier work
[9] = 48 assessable pts excluding PDC
[10] = esophageal cancer, 4 assessable patients

Substance: sacituzumab govitecan
- ORR, pts with 1 line of prior chemotherapy ([1]; 7/13): 53.8%
- ORR ([1]; 25 assessable pts, 8 or 10 mg/kg days 1 and 8 every 21 days): 36%
- grade 3 hypophosphatemia ([1]; 25 pts): 8%
- grade 4 neutropenia ([1]; 25 pts): 16%
- duration of response for CR/PR pts ([1]; 95% CI 4.1-12.9): 5.1 mos
- median PFS ([1]; all patients, 95% CI 4.9-10.7): 7.2 mos
- ORR, pts with 2 to 5 prior therapy lines ([1]; in vivo): 16.7%
- duration of grade 4 neutropenia ([1]; in vivo): < 7 days
- PR among pts with progression after prior IO ([1]; of 4 pts): 1 patients
- complete responses (CR) ([1]; of 25 pts): 1 patients
- partial responses (PR) ([1]; of 25 pts): 8 patients
- pts with stable disease >4 mos ([1]; of the SD pts): 10/11
- immunogenicity (antibodies to sacituzumab govitecan, hRS7 antibody or SN-38) [2]: not immunogenic; also recorded: No neutralizing antibodies
- partial response (PR), % of patients [3, 9]: 15%
- stable disease (SD), % of patients [3, 9]: 56%
- disease response, % of patients ([3]; 48 assessable pts excluding PDC, printed 38 pts): 79%
- maximum reduction in target lesions ([3]; CRC case, after 10 months of treatment): 65%
- CEA after treatment ([3]; CRC case, decrease from 781 ng/mL): 26.5 ng/mL
- reduction in target lesions at first CT assessment ([3]; CRC case, starting dose 8 mg/kg): 37%
- total response [PR+SD] ([3]; CRC, 12/18): 67%
- PD, patients ([3]; CRC, 18 assessable patients): 6 patients
- PR, patients ([3]; CRC, 18 assessable patients): 1 patients
- primary target lesion size at first CT ([3]; NSCLC case, 5.6 cm at start, after 6th dose): 3.2 cm
- total response [PR+SD] ([3]; NSCLC, 4/5): 80%
- PD, patients ([3]; NSCLC, 5 assessable patients): 1 patients
- PR, patients ([3]; NSCLC, 5 assessable patients): 1 patients
- reduction in target lesions ([3]; SCLC case, 12 mg/kg reduced to 6.8 mg/kg, after two months): 38%
- total response [PR+SD] ([3]; SCLC, 2/4): 50%
- PD, patients ([3]; SCLC, 4 assessable patients): 2 patients
- PR, patients ([3]; SCLC, 4 assessable patients): 2 patients
- total response [PR+SD] ([3]; TNBC, 6/8): 75%
- PD (progressive disease), patients ([3]; TNBC, 8 assessable patients): 2 patients
- PR (partial response), patients ([3]; TNBC, 8 assessable patients): 2 patients
- total response [PR+SD] ([3]; all, 34/48): 71%
- PD, patients ([3]; all, 48 assessable patients): 14 patients
- PR, patients ([3]; all, 48 assessable patients): Seven
- PR, patients ([3]; all, 48 assessable patients, listed as hRS7-SN-38): 7 patients
- total response [PR+SD] ([3]; esophageal cancer, 3/4): 75%
- PD, patients [3, 10]: 1 patients
- PR, patients [3, 10]: 1 patients
- Abdominal pain, Grade 3 ([3]; in vivo): 0
- Abdominal pain, Grade 4 ([3]; in vivo): 0
- Abdominal pain, TOTAL ([3]; in vivo): 11%
- Alopecia, TOTAL ([3]; in vivo): 40%
- Anemia, Grade 4 ([3]; in vivo): 0
- Anemia, TOTAL ([3]; in vivo): 13%
- Deep vein thrombosis, Grade 3 ([3]; in vivo): 1 (2%)
- Deep vein thrombosis, Grade 4 ([3]; in vivo): 0
- Deep vein thrombosis, TOTAL ([3]; in vivo): 2%
- Diarrhea, Grade 4 ([3]; in vivo): 0
- Diarrhea, TOTAL ([3]; in vivo): 47%
- Dysgeusia, Grade 3 ([3]; in vivo): 0
- Dysgeusia, Grade 4 ([3]; in vivo): 0
- Dysgeusia, TOTAL ([3]; in vivo): 15%
- Fatigue, Grade 4 ([3]; in vivo): 0
- Fatigue, TOTAL ([3]; in vivo): 55%
- Hypokalemia, Grade 3 ([3]; in vivo): 1 (2%)
- Hypokalemia, Grade 4 ([3]; in vivo): 0
- Hypokalemia, TOTAL ([3]; in vivo): 11%
- Nausea, Grade 4 ([3]; in vivo): 0
- Nausea, TOTAL ([3]; in vivo): 53%
- Neutropenia, TOTAL ([3]; in vivo): 43%
- Pyrexia, Grade 3 ([3]; in vivo): 0
- Pyrexia, Grade 4 ([3]; in vivo): 0
- Pyrexia, TOTAL ([3]; in vivo): 13%
- Vomiting, Grade 4 ([3]; in vivo): 0
- Vomiting, TOTAL ([3]; in vivo): 32%
- WBC Decrease, Grade 3 ([3]; in vivo): 1 (2%)
- WBC Decrease, Grade 4 ([3]; in vivo): 0
- WBC Decrease, TOTAL ([3]; in vivo): 6%
- alopecia ([3]; in vivo): 40%
- anemia, grade 3 ([3]; in vivo): 2 (4%)
- anti-hRS7 or anti-SN-38 antibodies ([3]; in vivo): No anti-hRS7 or anti-SN-38 antibodies were detected
- diarrhea ([3]; in vivo): 47%
- diarrhea >=G3 ([3]; in vivo): 9%
- diarrhea, grade 3 ([3]; in vivo): 4 (9%)
- fatigue ([3]; in vivo): 55%
- fatigue >=G3 ([3]; in vivo): 9%
- fatigue, grade 3 ([3]; in vivo): 4 (9%)
- nausea ([3]; in vivo): 53%
- nausea >=G3 ([3]; in vivo): 0%
- nausea, grade 3 ([3]; in vivo): 0
- neutropenia >=G3 ([3]; in vivo): 28%
- neutropenia G4 ([3]; in vivo): 4%
- neutropenia, grade 3 ([3]; in vivo): 11 (24%)
- neutropenia, grade 4 ([3]; in vivo): 2 (4%)
- vomiting ([3]; in vivo): 32%
- vomiting >=G3 ([3]; in vivo): 2%
- vomiting, grade 3 ([3]; in vivo): 1 (2%)
- median time to progression (TTP), PDC pts ([3]; pancreatic cancer, 8 wks in last prior therapy): 12.7 wks and 11.9 wks
- TTP, remaining 48 pts ([3]; range 6.0 to 51.4 wks): ≥ 12.6 wks
- median progression-free survival (PFS) [4]: 5.5 months
- overall survival (OS) [4]: 13.0 months
- response rate [4]: 33.3%
- SN-38 released daily [5]: 50%
- clinically significant response [6]: 50%
- ORR ([7]; 53 mSCLC patients (Gray et al., 2017)): 14%
- median OS ([7]; Gray et al., 2017): 7.5 months
- median PFS ([7]; Gray et al., 2017): 3.7 months
- median response duration ([7]; Gray et al., 2017): 5.7 months
- patients with tumor shrinkage from baseline ([7]; Gray et al., 2017): Sixty
- clinical benefit rate ([8]; 47 patients): 43%
- ORR ([8]; 47 response assessable patients, median three prior therapies): 19%
- median OS ([8]; human, in vivo): 9.5 months
- median PFS ([8]; human, in vivo): 5.2 months
